Columns and labels:
Factor Va [1] = target: Factor Va (UniProt P12259)
Factor Va [2] = target: Factor Va (UniProt P12259); remark: listed apart in the source
Factor Va [3] = target: Factor Va (UniProt P12259); experiment: SPR; Biacore T200; FVa amine-coupled on a CM5 chip (8000-9000 RU); prothrombin 0-10,000 nM injected for 60 s at 30 uL/min; HBS (0.02 M HEPES, 0.15 M NaCl, pH 7.4) with 5 mM CaCl2 and 0.01% Tween-80; kinetic 1:1 Langmuir model

Sequence of Factor Va (P12259 29-737, chain 1 of 2): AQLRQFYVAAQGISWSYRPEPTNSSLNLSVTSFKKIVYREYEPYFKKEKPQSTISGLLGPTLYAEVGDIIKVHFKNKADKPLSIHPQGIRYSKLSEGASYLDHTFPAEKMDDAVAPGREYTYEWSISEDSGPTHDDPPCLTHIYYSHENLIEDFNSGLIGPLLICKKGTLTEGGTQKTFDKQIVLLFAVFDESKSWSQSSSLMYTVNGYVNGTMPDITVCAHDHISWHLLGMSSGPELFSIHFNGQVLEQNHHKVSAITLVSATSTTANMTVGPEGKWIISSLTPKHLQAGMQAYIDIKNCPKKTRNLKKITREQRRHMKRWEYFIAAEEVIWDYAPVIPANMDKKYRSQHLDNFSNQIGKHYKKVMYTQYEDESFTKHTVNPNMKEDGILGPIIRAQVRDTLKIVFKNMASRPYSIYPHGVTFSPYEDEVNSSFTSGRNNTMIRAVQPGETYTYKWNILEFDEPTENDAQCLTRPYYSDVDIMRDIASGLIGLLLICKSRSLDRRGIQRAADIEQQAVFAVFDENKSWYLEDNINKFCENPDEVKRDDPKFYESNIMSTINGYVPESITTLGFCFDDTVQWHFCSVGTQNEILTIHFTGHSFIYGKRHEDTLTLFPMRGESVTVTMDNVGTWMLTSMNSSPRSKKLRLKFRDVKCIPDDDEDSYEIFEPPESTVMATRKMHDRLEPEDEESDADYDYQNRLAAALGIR
Sequence of Factor Va (P12259 1574-2224, chain 2 of 2): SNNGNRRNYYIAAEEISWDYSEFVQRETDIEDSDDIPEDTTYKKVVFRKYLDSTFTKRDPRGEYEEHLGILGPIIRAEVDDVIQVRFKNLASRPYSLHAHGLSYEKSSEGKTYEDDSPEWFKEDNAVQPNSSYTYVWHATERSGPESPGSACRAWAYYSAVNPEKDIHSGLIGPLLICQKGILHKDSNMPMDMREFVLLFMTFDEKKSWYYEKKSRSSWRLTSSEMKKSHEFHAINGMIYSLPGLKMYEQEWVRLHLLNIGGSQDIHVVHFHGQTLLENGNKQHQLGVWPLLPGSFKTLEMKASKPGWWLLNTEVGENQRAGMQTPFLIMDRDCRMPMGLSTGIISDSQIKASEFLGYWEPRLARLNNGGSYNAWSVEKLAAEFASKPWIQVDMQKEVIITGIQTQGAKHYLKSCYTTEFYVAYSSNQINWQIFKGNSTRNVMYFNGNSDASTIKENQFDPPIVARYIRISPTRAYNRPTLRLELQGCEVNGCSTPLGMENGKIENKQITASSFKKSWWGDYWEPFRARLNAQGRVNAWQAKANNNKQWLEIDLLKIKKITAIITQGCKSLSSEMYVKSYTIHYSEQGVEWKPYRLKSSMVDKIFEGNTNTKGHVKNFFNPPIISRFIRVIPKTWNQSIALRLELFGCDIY

initial rate of thrombin generation, activation by FXa/FVa (5 nM FXa, 20 nM FVa, 5 mM CaCl2; DAPA) (Factor Va [1]): 0.0053 s⁻¹
initial rate of thrombin generation, activation by full prothrombinase (20 pM FXa, 20 nM FVa, 50 uM PCPS, 5 mM CaCl2; DAPA) (Factor Va [1]): 55.1 s⁻¹
total thrombin generated on activation by FXa/FVa, relative to wild-type prothrombin (% of wild type) (Factor Va [2]): 35
total thrombin generated on activation by full prothrombinase, decrease against wild-type prothrombin (% lower than wild type) (Factor Va [2]): 42
Kd (Factor Va [3]): 2.6 µM
Substance: PT6 prothrombin (Gln177Ala, Gln179Ala, Arg181Ala, Leu182Thr, Val184Thr, Thr185Ala) (natural protein)

From publication PMC6385242, “Identification and characterization of a factor Va-binding site on human prothrombin fragment 2” (Scientific Reports, 2019)
